From US20260069689A1 (Regeneron, published 2026)

Target: SARS-COV-2 RBD extracellular domain expressed with a C-terminal myc-myc-hexahistidine tag (SARS-CoV-2)
Test: SPR (Biacore), mAb captured by anti-human Fc, RBD-mmH in solution, 25 C

Binder | Kd [nM] | koff [s⁻¹] | kon [M⁻¹ s⁻¹] | t½ [min]
mAb14256 (antibody, V domains shown) VH: QVQLQESGPGLVKPSETLSLTCTVSGGSISSHYWSWIRQPPGKGLEWIGYIYYSGSSNYNPSLKSRVTISVDTSKNQFSLKLNSVTAADTAVYYCARHYDILTGFDWFDPWGQGTLVTVSS VL: QSVLTQPPSVSGAPGQRVTISCTGSSSNIGTHYDVHWYQQLPGTAPKLLIYGNSNRPSGVPDRFSGSKSGTSASLAITGLQAEDEADYYCQSFDNSLTAPYVFGTGTKVTVLG | 8.32 | 0.00927 | 1.11e+06 | 1.2
mAb15156 (antibody, V domains shown) VH: QLQLQESGPGLVKSSETLSLTCTVSASITGSTYYWGWIRQPPGKGLEWIGSIYYSGTTYYKASLKSRVTISVDTSKNQFSLKLTSVTVADTAVYYCVSHLLGNYHKYGMDVWGQGTTVTVSS VL: not shown | 4.18 | 0.00121 | 289000 | 9.6
mAb15157 (antibody, V domains shown) VH: EVQLVESGGALVQPGGSLRLSCAASGFPFTIYAMTWVRQAPGKGLEWVSVITGSGDSTYYADSVKGRFTISRDNSKNTLYLQMNSLRAEDTAVYYCVKTGEGFFYYYYGMDVWGQGTTVTVSS VL: QSVLTQPPSVSAAPGQKVTISCSGSSSNIGNSYISWYQQLPGTAPKLLIYVNNKRPSGIPDRFSGSKSGTSATLGITGLQTGDEADYYCGTWDSSLSAGVFGSGTKVTVLG | 4.49 | 0.00125 | 278000 | 9.3
mAb15151 (antibody, V domains shown) VH: QVQLVESGGGVVQPGRSLRLSCAASGFVFNSYGMHWVRQAPGKGLEWVAVLWYEGSKNYYADSVKGRFTISRDNSKNTLYLQMNSLRAEDTAVYYCARHGSGSFFGYYLDYWGQGTLVTVSS VL: DIQMTQSPSSLSASVGDRVTITCRASHNINDFLNWYQQKPGKAPRLLIYAASSLQSGVPSRFSGSGSGTDFTLTISSLQPEDFATYYCQESYTTPPTFGQGTKLEIKR | 3.89 | 0.000778 | 200000 | 14.8
mAb14292 (antibody, V domains shown) VH: EVQLVESGGGLVQPGGSLRLSCVASGFAFSTYEMNWVRQAPGKGLEWVSYISSSGSTIYYADSVKGRLTISRDNVKNSLYLQMNSLRVEDTAIYYCARDAIRNNDILTDPATFDPWGQGTLVTVSS VL: not shown | 40.9 | 0.0171 | 417000 | 0.7
mAb14234 (antibody, V domains shown) VH: QVQLVESGGGVVQPGRSLRLSCAASGFTFSSYGIHWVRQAPGKGLEWVAIIWYDGSEKYYADSVKGRFTISRDNSKNTLFLQMNSLEAEDTAVYYCARGPDLLTGYYNYFYYGMDVWGQGTTVTVSS VL: QSVLTQPPSVSGAPGQRVTISCTGSSSNIGIGYDVHWYQQLPGTVPKLLIYGNTNRPSGVPDRFSGSKSGTSASLAITGLQAEDEADYYCQSYDSSLSSYVFGTGTKVTVLG | 20.5 | 0.0113 | 550000 | 1
mAb15161 (antibody, V domains shown) VH: EVQLVESGGGLVQPGGSLRLSCAASGFTFSSYEMNWVRQAPGKGLEWVSYISSSGSILYYADSVKGRFTASRDNAKNSLYLQMNSLRAEDTGVYYCARREYQLLRPFEFWGQGTLVTVSS VL: not shown | 1.35 | 0.000234 | 173000 | 49.3
mAb14280 (antibody, V domains shown) VH: QVQLVQSGAEVKKPGASVRVSCKASGYTFTGNYIHWVRQAPGQGLEWMAWINPNSGGKNYAQKFQGRVTLTRDTSVNTAYMELSRLRSDDTAMYYCARDVNYNILTGPGGLWGQGTLVTVSS VL: QSALTQPPSASGSPGQSVTISCTGTSSDVGGYNFVSWYQQHPGKAPKLMIYEVSKRPSGVPDRFSGSKSGNTASLTVSGLQAEDEADYYCSSYAGSNNFVFGTGTKVTVLG | 15.4 | 0.0255 | 1.66e+06 | 0.5
mAb15163 (antibody, V domains shown) VH: EVQLVETGGGLIQPGESLRLSCAASGFIVSTNYMNWVRQAPGKGLEWVSVIYRGGSTYYADSVKGRFTISRDNSKNTLFLQMNSLRAEDTAVYYCARGHEDFDYDTPASGAFDIWGQGTMVTVSS VL: QSALTQPPSASGSPGQSVTISCTGTSSDVGGHNYVSWYQQHPGKAPKVMIYEVSKRPSGVPDRFSGSKSGNTASLTVSGLQAEDEADYYCSSYAGSNKFVFGTGTKVTVLG | 0.0779 | 1.67e-05 | 218000 | 693
mAb14312 (antibody, V domains shown) VH: EVQLVESGGGLVQPGGSLRLSCAASGFTVSRSYMTWVRQAPGKGLEWVSVIFTGGRTDHADSVKGRFTISRHNSKNTLYLQMNSLRTEDTAVYYCARVAIVGATGAFDIWGQGTMVTVSS VL: QSVLTQPPSVSGAPGQRVTISCTGSSSNIGAGDDVHWYQQLPGTAPKLLIYGNSNRPSGVPDRFSGSKSGTSASLAITGLQAEDEADYYCQSYDSSLSGSVVFGGGTKLTVLG | 0.606 | 0.000929 | 1.53e+06 | 12.4
mAb15159 (antibody, V domains shown) VH: EVQLVESGGGLVQPGGSLRLSCAASGITVSSNYMTWVRQAPGKGLEWVSLIYSGGSTFYADSVRGRFTISRDNSKNTLYLQMNSLRAEDTAVYYCARDLVVYGMDVWGQGTTVTVSS VL: DIQLTQSPSSLSASVGDRVTITCRASQGISSYLAWYQQKPGKAPKLLIYAASTLQSGVPSRFSGSGSGTDFTLTISSLQPEDFATYYCQHLNSDPHTFGQGTKLEIKR | 2.66 | 0.00013 | 48900 | 88.8
mAb15170 (antibody, V domains shown) VH: EVQLVESGGGLVQPGGSLRLSCAATGITVSSNYMSWVRQAPGKGLEWVSLIYSGGSTFYADSVKGRFTISRHNSKNTLYLQMSSLRAEDTAVYYCARDLVDFGMDVWGQGTTVTVSS VL: DIQLTQSPSSLSASVGDRVTITCRASQGISNYLAWYQQKPGKAPKLLIYAASTLQSGVPSRFSGSGSGTDFTLTISSLQPEDFGTYYCQQLNSDSPTFGQGTKVEIKR | 0.1 | 1.53e-05 | 200000 | 756
mAb14285 (antibody, V domains shown) VH: QVQLVQSGAEVKKPGASVKVSCKASGYTFTGYFIHWVRQAPGQGLEWMGWISPISGGTNYAQKFQGRVTVTRDTSITTAYMELSRLTSDDTAVYHCAREGGTWKGDFDYWGQGTLVTVSS VL: QSALTQPASVSGSPGQSITISCTGTSSDVESYNLVSWYQQHPGKAPKLMIYEGSKRPSGVSNRFSGSKSGNTASLTISGLQAEDEADYYCSSYAGSSTWVFGGGTKLTVLG | 11.7 | 0.0211 | 1.8e+06 | 0.5
mAb15164 (antibody, V domains shown) VH: EVQLVESGGGLVQPGGSLRLSCAASGFAVSSNYMTWVRQAPGKGLEWVATIYSGDSTYYADSVKGRFTISRHNSKNTLSLQMNSLRADDTAIYYCARLSGVLSGTYNGAFDIWGQGTMVTVSS VL: QSALTQPASVSGSPGQSITISCTGTSSDFGNYNIVSWYQQHPGQAPKVMIYEGNKRPSGVSNRFSGSKSGHTASLTISGLQAEDEADYYCSSYAGSSTWVFGGGTKLTVLG | 1.53 | 0.000349 | 228000 | 33.1
mAb15165 (antibody, V domains shown) VH: EVQLVESGGGLVQPGGSLRLSCAASGFTVSSNYMSWVRQAPGKGLEWVSAIYSGDSTYYADSVKGRFTISKDNSKNTLYLQMNSLRGEDTAVYYCARLGGALQAYDGAFDYWGQGTLATVSS VL: QSALTQPASVSGSPGQSITISCTGTSSDFGSYNLVSWYQQHPGKAPKLMIYEGNKRPSGVSIRFSGSKSGNTASLTISGLQAEDEADYYCSSYAGSSTWVFGGGTKLTVLG | 0.393 | 0.000212 | 539000 | 54.6
mAb15166 (antibody, V domains shown) VH: EVQLVESGGGLVQPGGSLRLSCAASGFTVTSNYMSWVRQAPGKGLEWVSAIYSGESTYYADSVKGRFTISRDSSKNTLYLQMNSLRVEDTAVYYCASIHDYSNYVGGFDPWGQGTLVTVSS VL: QSALTQPASVSGSPGQSITISCTGPSSDFGSYNLVSWYQQHPGKAPKLMIYEGTKRPSGVSNRFSGSKSGNTASLTISGLQAEDEADYYCSSYAGSSTWVFGGGTKLTVLG | 21.7 | 0.00535 | 246000 | 2.2
mAb15162 (antibody, V domains shown) VH: EVQLVETGGGLIQPGGSLRLSCAASEFIVSRNYMSWVRQAPGKGLEWVSLIYSGGSTYYADSVKGRFTISRDNSKNILYLQMNSLRAEDTAVYYCARDRGGISDYWGQGTLVTVSS VL: DIQMTQSPSSLSASVGDRVTITCQASQDINKYLNWFQQKPGKAPKLLIYDASNLETGVPSRFSGSGSGTDFTFTISSLQPEDIATYYCQQYDNLPRTFGQGTKLEIKR | 7.3 | 0.00085 | 116000 | 13.6
mAb15150 (antibody, V domains shown) VH: EVQLVETGGGLIQPGGSLRLSCAAPGFIVSSNYMSWVRQAPGKGLEWVSLLYPGGSTYYADSVKGRFTISRDNSKNTLYLQMNSLRADDTAVYYCARVLPIVEDHFDYWGQGTLVTVSS VL: DIQLTQSPSFLSASVGDRVTITCRASQGMSSYLAWYQKKPGKAPKLLIYGATILQSGVPSRFSGSGSGTEFTLTISSLQPEDFATYYCQQLNSDPLYMYTFGQGTKLEIKR | 0.0594 | 4.61e-05 | 774000 | 251
mAb15158 (antibody, V domains shown) VH: EVQLVESGGGLVQPGGSLRLSCAASGFSFSSNWMSWVRQAPGKGLEWVGNINQDGSEKYYVDSVEGRFTISRDNAKKSLYLQMNSLRAEDTAVYYCARDLGVLWFGDFVDWGQGALVTVSS VL: DIQMTQSPSSLSASVGDRVTITCRASQAISNSLAWYQQKPGKAPKLLLYAASTLESGVPSRFSGSGSGTDYTLTISSLQPEDFATYYCLQYYGSPRTFGQGTKVEIKR | 0.779 | 8.12e-05 | 104000 | 142
mAb14230 (antibody, V domains shown) VH: EVQLVESGGGLIQPGRSLRLSCAASGFTFDDYAMHWVRQAPGKGLEWVSGISWNSVSIDYADSVKGRFTISRDNAKNSLYLQMTSLTVEDTALYYCAKAFGYETLTGSDYFAYWGPGTLVTVSS VL: EIVLTQSPGTLSLSPGERATLSCRASQTVISTYLAWYQQKPGQSPRLLIYGASSRATGIPDRFSGSGSGTDFTLTISRLEPEDFAVYYCQQYGSSPQLTFGGGTKVEIKR | 7.51 | 0.00852 | 1.13e+06 | 1.4
